To fix the notation:
B1: Ac-ETEFI(Cya)WGPTGDED-NH2 (AJAP-1WT mutant Ala182Cya) (peptide)
peptide: Ac-ETEFI[Cya]WGPTGDED-NH2
SMILES: CC[C@H](C)[C@H](NC(=O)[C@H](Cc1ccccc1)NC(=O)[C@H](CCC(=O)O)NC(=O)[C@@H](NC(=O)[C@H](CCC(=O)O)NC(C)=O)[C@@H](C)O)C(=O)N[C@@H](CS(=O)(=O)O)C(=O)N[C@@H](Cc1c[nH]c2ccccc12)C(=O)NCC(=O)N1CCC[C@H]1C(=O)N[C@H](C(=O)NCC(=O)N[C@@H](CC(=O)O)C(=O)N[C@@H](CCC(=O)O)C(=O)N[C@@H](CC(=O)O)C(N)=O)[C@@H](C)O
B2: e… (peptide)
peptide: Ac-[dE]DDSDVWWGGADTD-NH2
SMILES: CC(=O)N[C@H](CCC(=O)O)C(=O)N[C@@H](CC(=O)O)C(=O)N[C@@H](CC(=O)O)C(=O)N[C@@H](CO)C(=O)N[C@@H](CC(=O)O)C(=O)N[C@H](C(=O)N[C@@H](Cc1c[nH]c2ccccc12)C(=O)N[C@@H](Cc1c[nH]c2ccccc12)C(=O)NCC(=O)NCC(=O)N[C@@H](C)C(=O)N[C@@H](CC(=O)O)C(=O)N[C@H](C(=O)N[C@@H](CC(=O)O)C(N)=O)[C@@H](C)O)C(C)C

Non-standard residues stand in square brackets, D forms with d. Cya = N[C@@H](CS(=O)(=O)O)C(=O)O

Sushi domains (SD1/2) protein of the GABAB1a (GB1a) subunit, recombinant, sequence (Q9Z0U4 29-158): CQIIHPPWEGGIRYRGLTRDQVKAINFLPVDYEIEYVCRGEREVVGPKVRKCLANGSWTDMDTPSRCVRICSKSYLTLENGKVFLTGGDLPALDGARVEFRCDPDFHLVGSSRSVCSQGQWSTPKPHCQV

This assay has as its target Sushi domains (SD1/2) protein of the GABAB1a (GB1a) subunit, recombinant. The assay can be described thus: FP competition.
As a reminder, the Ki is a measure of affinity in units of concentration, obtained from inhibition or displacement. Consider Ac-TETEFIAWGP-NH2, for which the Ki is 574 nM.

Turning to Ac-QYPWAIVWGPTVSREDG-NH2, the Ki stood at 650 nM.

Ac-FIAWGPTGDED-NH2: the Ki was determined as 118 nM.

As to Ac-EDDSDVWW[dA]GADTD-NH2 [EDDSDVWWaGADTD], the Ki worked out at 8700 nM.

For the molecule Ac-PWAIVWGPTVS-NH2, the Ki is 463 nM.

In the case of Ac-SSQYPWAIVWGPTVSREDG-NH2, the Ki was 29900 nM.

Regarding Ac-VWGPTVSREDG-NH2, the Ki was determined as 1740 nM.

On to Ac-PWAIVWGPTVSREDGGDPN-NH2, for which the Ki was found to be 579 nM.

Turning to Ac-EDDADVWWGGADTD-NH2, the Ki was determined as 660 nM.

On to Ac-PWAIVWGPTVSREDGGD-NH2, for which the Ki was 716 nM.

Regarding Ac-PWAIVW-NH2, the Ki stood at 706 nM.

With Ac-EDDSDVWWGGADAD-NH2, the Ki is 480 nM.

Consider Ac-PWAIVWG-NH2, for which the Ki is 579 nM.

Consider Ac-PWAIVWGP-NH2, for which the Ki was determined as 597 nM.

Consider Ac-EDDSDVWWG[dA]ADTD-NH2 […aADTD], for which the Ki was determined as 1210 nM.

As for Ac-PWAIVWGPTVSREDGGDPNS-NH2, the Ki was determined as 706 nM.

Regarding Ac-EDDSDVWWAGADTD-NH2, the Ki was 485 nM.

Consider Ac-EDDSDVWWGG[dA]DTD-NH2 […aDTD], for which the Ki came to 755 nM.

Take Ac-IAWGPTGDED-NH2: the Ki came to 38000 nM.

Consider Ac-TETEFIAWGPTGDEDAL-NH2, for which the Ki came out at 47 nM.

Regarding Ac-ETEFIDWGPTGDED-NH2 [peptide 26 (Ac-…-NH2, AJAP-1WT mutant A182D)], the fold improved affinity relative to the wild type (AJAP-1WT) was determined as 3 fold.

Take Ac-EDASDVWWGGADTD-NH2: the Ki amounted to 1830 nM.

For the molecule Ac-EDDSDVWWGAADTD-NH2, the Ki stood at 731 nM.

Consider Ac-EDDSDVWWGGADT[dD]-NH2 […d], for which the Ki stood at 529 nM.

Take Ac-TETEFIAWGPTGDE-NH2: the Ki was 69 nM.

As for Ac-PWAIVWGPT-NH2, the Ki is 716 nM.

Regarding Ac-TETEFIAW-NH2, the Ki stood at 1010 nM.

For the molecule Ac-EDD[dS]DVWWGGADTD-NH2 [EDDs…], the Ki stood at 752 nM.

On to Ac-PWAIVWGPTVSR-NH2, for which the Ki was determined as 433 nM.

For Ac-EADSDVWWGGADTD-NH2, the Ki came out at 1240 nM.

Turning to B1, the Ki was 11.8 nM.

As to Ac-E[dD]DSDVWWGGADTD-NH2 [Ed…], the Ki is 567 nM.

As for Ac-TETEFIAWGPTG-NH2, the Ki turned out to be 248 nM.

As to Ac-IVWGPTVSREDG-NH2, the Ki was 15700 nM.

For the molecule Ac-TETEFIAWGPTGDEDA-NH2, the Ki was 36 nM.

Take Ac-EDDSDVWWGGA[dD]TD-NH2 […dTD]: the Ki was found to be 637 nM.

In the case of Ac-EFIAWGPTGDED-NH2, the Ki came out at 112 nM.

As to Ac-ADDSDVWWGGADTD-NH2, the Ki worked out at 803 nM.

As for Ac-PWAIVWGPTV-NH2, the Ki was determined as 561 nM.

With Ac-YPWAIVWGPTVSREDG-NH2, the Ki was 433 nM.

Consider Ac-PWAIVWGPTVSREDGGDP-NH2, for which the Ki came to 597 nM.

For the molecule Ac-AIVWGPTVSREDG-NH2, the Ki stood at 5550 nM.

With Ac-EDDSDVAWGGADTD-NH2, the Ki stood at 8790 nM.

For Ac-EDDS[dD]VWWGGADTD-NH2 [EDDSd…], the Ki is 1630 nM.

In the case of Ac-TTETEFIAWGPTGDED-NH2, the inhibitory constant (Ki) turned out to be 32 nM.

For the molecule Ac-EDDSDVWWGGADTA-NH2, the Ki is 786 nM.

Ac-SQYPWAIVWGPTVSREDG-NH2: the Ki came out at 762 nM.

On to Ac-EDDSDVWWGGAD[dT]D-NH2 […tD], for which the Ki is 469 nM.

Take Ac-TETEFIAWGPT-NH2: the Ki worked out at 236 nM.

As for Ac-ED[dD]SDVWWGGADTD-NH2 [EDd…], the inhibition constant Ki is 736 nM.

As to Ac-PWAIVWGPTVSREDGG-NH2, the Ki turned out to be 561 nM.

With B2, the Ki worked out at 483 nM.

As to Ac-TETEFIAWG-NH2, the Ki is 2470 nM.

Ac-PWAIVWGPTVSRE-NH2: the Ki was found to be 650 nM.

For the molecule Ac-EDDSAVWWGGADTD-NH2, the Ki was 3080 nM.

On to Ac-EDDSDVWWGGAATD-NH2, for which the Ki turned out to be 653 nM.

Take Ac-TETEFIAWGPTGD-NH2: the Ki came out at 97 nM.

With Ac-TEFIAWGPTGDED-NH2, the Ki worked out at 102 nM.
